Data as given in the supplement of paper PMC10567573.

B1: ZNF263 (parent)
chain: QRTHTGEKPYKCPECGEIFAHSSN

Variants of: B1
Assay: protein stability index of a GFP-peptide fusion (GPS, HEK-293T) (PSI 1-6); higher = more stable
Settings: c terminus: a fixed tail appended
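Further: lentivirally expressed fusions sorted by FACS into six bins by GFP to DsRed ratio, PSI derived from sequencing read proportions per bin multiplied by bin number.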

Compared with YRTHTGEKPYKCPECGEIFAHSSN [Q1Y], QETHTGEKPYKCPECGEIFAHSSN [R2E] is higher in protein stability index: 2.57 for the first, 3.78 for the second.

Going from QSTHTGEKPYKCPECGEIFAHSSN [R2S] to QKTHTGEKPYKCPECGEIFAHSSN [R2K], the protein stability index falls from 3.88 to 2.92.

First: QCTHTGEKPYKCPECGEIFAHSSN [R2C]
Second: QDTHTGEKPYKCPECGEIFAHSSN [R2D]
The protein stability index of the first is higher: 4.86 for the first, 4.06 for the second.

Going from QGTHTGEKPYKCPECGEIFAHSSN [R2G] to QPTHTGEKPYKCPECGEIFAHSSN [R2P], the protein stability index falls from 4.29 to 3.77.

First: QWTHTGEKPYKCPECGEIFAHSSN [R2W]
Second: QMTHTGEKPYKCPECGEIFAHSSN [R2M]
The protein stability index of the first is higher: 2.9 for the first, 2.62 for the second.

Going from QNTHTGEKPYKCPECGEIFAHSSN [R2N] to QVTHTGEKPYKCPECGEIFAHSSN [R2V], the protein stability index falls from 4.07 to 2.88.

First: QTTHTGEKPYKCPECGEIFAHSSN [R2T]
Second: QQTHTGEKPYKCPECGEIFAHSSN [R2Q]
The protein stability index of the first is higher: 3.45 for the first, 3.3 for the second.

Going from QHTHTGEKPYKCPECGEIFAHSSN [R2H] to QATHTGEKPYKCPECGEIFAHSSN [R2A], the protein stability index falls from 4.35 to 3.34.

Compared with QFTHTGEKPYKCPECGEIFAHSSN [R2F], QYTHTGEKPYKCPECGEIFAHSSN [R2Y] is higher in protein stability index: 2.82 for the first, 3.02 for the second.

First: QITHTGEKPYKCPECGEIFAHSSN [R2I]
Second: QLTHTGEKPYKCPECGEIFAHSSN [R2L]
The protein stability index of the first is lower: 3.32 for the first, 3.6 for the second.

Compared with QRTHCGEKPYKCPECGEIFAHSSN [T5C], QRTHFGEKPYKCPECGEIFAHSSN [T5F] is lower in protein stability index: 3.81 for the first, 2.92 for the second.

Compared with QRTHHGEKPYKCPECGEIFAHSSN [T5H], QRTHVGEKPYKCPECGEIFAHSSN [T5V] is lower in protein stability index: 3.75 for the first, 3.06 for the second.

First: QRTHKGEKPYKCPECGEIFAHSSN [T5K]
Second: QRTHRGEKPYKCPECGEIFAHSSN [T5R]
The protein stability index of the first is higher: 3 for the first, 2.27 for the second.

Going from QRTHQGEKPYKCPECGEIFAHSSN [T5Q] to QRTHDGEKPYKCPECGEIFAHSSN [T5D], the protein stability index falls from 3.65 to 3.6.

Compared with QRTHMGEKPYKCPECGEIFAHSSN [T5M], QRTHEGEKPYKCPECGEIFAHSSN [T5E] is lower in protein stability index: 3.09 for the first, 2.89 for the second.

Compared with QRTHGGEKPYKCPECGEIFAHSSN [T5G], QRTHAGEKPYKCPECGEIFAHSSN [T5A] is lower in protein stability index: 3.41 for the first, 3.25 for the second.

Going from QRTHYGEKPYKCPECGEIFAHSSN [T5Y] to QRTHPGEKPYKCPECGEIFAHSSN [T5P], the protein stability index falls from 3.11 to 2.74.

First: QRTHNGEKPYKCPECGEIFAHSSN [T5N]
Second: QRTHWGEKPYKCPECGEIFAHSSN [T5W]
The protein stability index of the first is higher: 3.57 for the first, 2.33 for the second.

Compared with QRTHSGEKPYKCPECGEIFAHSSN [T5S], QRTHIGEKPYKCPECGEIFAHSSN [T5I] is lower in protein stability index: 3.21 for the first, 3.03 for the second.

Going from QRTHLGEKPYKCPECGEIFAHSSN [T5L] to QRTHTGEKPGKCPECGEIFAHSSN [Y10G], the protein stability index rises from 2.99 to 3.48.

Compared with QRTHTGEKPNKCPECGEIFAHSSN [Y10N], QRTHTGEKPCKCPECGEIFAHSSN [Y10C] is higher in protein stability index: 4.17 for the first, 4.75 for the second.

Compared with QRTHTGEKPRKCPECGEIFAHSSN [Y10R], QRTHTGEKPSKCPECGEIFAHSSN [Y10S] is higher in protein stability index: 3.79 for the first, 3.98 for the second.

Compared with QRTHTGEKPFKCPECGEIFAHSSN [Y10F], QRTHTGEKPAKCPECGEIFAHSSN [Y10A] is higher in protein stability index: 3.25 for the first, 3.4 for the second.

First: QRTHTGEKPWKCPECGEIFAHSSN [Y10W]
Second: QRTHTGEKPVKCPECGEIFAHSSN [Y10V]
The protein stability index of the first is lower: 3.46 for the first, 3.93 for the second.

Compared with QRTHTGEKPMKCPECGEIFAHSSN [Y10M], QRTHTGEKPDKCPECGEIFAHSSN [Y10D] is higher in protein stability index: 3.66 for the first, 4.31 for the second.

First: QRTHTGEKPTKCPECGEIFAHSSN [Y10T]
Second: QRTHTGEKPLKCPECGEIFAHSSN [Y10L]
The protein stability index of the first is higher: 4.55 for the first, 3.55 for the second.

Compared with QRTHTGEKPKKCPECGEIFAHSSN [Y10K], QRTHTGEKPIKCPECGEIFAHSSN [Y10I] is lower in protein stability index: 3.93 for the first, 3.59 for the second.

Compared with QRTHTGEKPEKCPECGEIFAHSSN [Y10E], QRTHTGEKPPKCPECGEIFAHSSN [Y10P] is higher in protein stability index: 4.04 for the first, 4.31 for the second.

Compared with QRTHTGEKPQKCPECGEIFAHSSN [Y10Q], QRTHTGEKPHKCPECGEIFAHSSN [Y10H] is higher in protein stability index: 3.5 for the first, 3.7 for the second.

Going from QRTHTAEKPYKCPECGEIFAHSSN [G6A] to QRTHTFEKPYKCPECGEIFAHSSN [G6F], the protein stability index falls from 3.27 to 2.79.

First: QRTHTCEKPYKCPECGEIFAHSSN [G6C]
Second: QRTHTHEKPYKCPECGEIFAHSSN [G6H]
The protein stability index of the first is higher: 4.26 for the first, 3.33 for the second.

Going from QRTHTIEKPYKCPECGEIFAHSSN [G6I] to QRTHTSEKPYKCPECGEIFAHSSN [G6S], the protein stability index rises from 2.98 to 3.38.

First: QRTHTQEKPYKCPECGEIFAHSSN [G6Q]
Second: QRTHTDEKPYKCPECGEIFAHSSN [G6D]
The protein stability index of the first is higher: 3.49 for the first, 3.23 for the second.

First: QRTHTPEKPYKCPECGEIFAHSSN [G6P]
Second: QRTHTNEKPYKCPECGEIFAHSSN [G6N]
The protein stability index of the first is higher: 3.23 for the first, 2.85 for the second.

Going from QRTHTREKPYKCPECGEIFAHSSN [G6R] to QRTHTTEKPYKCPECGEIFAHSSN [G6T], the protein stability index rises from 2.51 to 3.34.

First: QRTHTKEKPYKCPECGEIFAHSSN [G6K]
Second: QRTHTWEKPYKCPECGEIFAHSSN [G6W]
The protein stability index of the first is higher: 3.18 for the first, 2.74 for the second.

First: QRTHTEEKPYKCPECGEIFAHSSN [G6E]
Second: QRTHTVEKPYKCPECGEIFAHSSN [G6V]
The protein stability index of the first is higher: 3.71 for the first, 2.79 for the second.

Compared with QRTHTYEKPYKCPECGEIFAHSSN [G6Y], QRTHTLEKPYKCPECGEIFAHSSN [G6L] is higher in protein stability index: 2.64 for the first, 3.27 for the second.

Going from QRTHTMEKPYKCPECGEIFAHSSN [G6M] to QRTHTGEGPYKCPECGEIFAHSSN [K8G], the protein stability index rises from 3.04 to 3.81.

Going from QRTHTGENPYKCPECGEIFAHSSN [K8N] to QRTHTGEMPYKCPECGEIFAHSSN [K8M], the protein stability index falls from 3.46 to 3.4.

First: QRTHTGEDPYKCPECGEIFAHSSN [K8D]
Second: QRTHTGEAPYKCPECGEIFAHSSN [K8A]
The protein stability index of the first is lower: 3.3 for the first, 3.31 for the second.

First: QRTHTGEYPYKCPECGEIFAHSSN [K8Y]
Second: QRTHTGEFPYKCPECGEIFAHSSN [K8F]
The protein stability index of the first is higher: 3.34 for the first, 2.89 for the second.

First: QRTHTGEQPYKCPECGEIFAHSSN [K8Q]
Second: QRTHTGELPYKCPECGEIFAHSSN [K8L]
The protein stability index of the first is lower: 3.38 for the first, 3.41 for the second.

First: QRTHTGETPYKCPECGEIFAHSSN [K8T]
Second: QRTHTGERPYKCPECGEIFAHSSN [K8R]
The protein stability index of the first is lower: 3.28 for the first, 3.74 for the second.

Going from QRTHTGEVPYKCPECGEIFAHSSN [K8V] to QRTHTGEWPYKCPECGEIFAHSSN [K8W], the protein stability index rises from 3 to 3.3.

Going from QRTHTGECPYKCPECGEIFAHSSN [K8C] to QRTHTGEPPYKCPECGEIFAHSSN [K8P], the protein stability index falls from 5.15 to 3.4.

Going from QRTHTGEEPYKCPECGEIFAHSSN [K8E] to QRTHTGEIPYKCPECGEIFAHSSN [K8I], the protein stability index falls from 3.82 to 2.66.
